Measurements taken from patent publication US20200010567A1 (NEURIMMUNE, published 2020).

Tests used:
PR3: H-(PR)3HHHHHH-NH2 = target: T1, PR3: H-(PR)3HHHHHH-NH2; test: indirect ELISA, His-tagged peptide coated at 50 ug/ml, antibody titrated [also D00027 FIG. 7O]
T1 peptide: H-PRPRPRHHHHHH-NH2
Protocol: (§1) 96-well microplates (Corning Incorporated, Corning, USA) were coated with dipeptide repeat protein peptides at a concentration of 50 μg/ml in coating buffer (15 mM Na₂CO₃, 35 mM NaHCO₃, pH 9.42). Non-specific binding sites were blocked for 1 h at room temperature with PBS/0.1% Tween®-20 containing 2% BSA (Sigma-Aldrich, Buchs, Switzerland). Primary antibodies were diluted to the indicated concentrations and incubated 1 h at room temperature, followed by incubation with a donkey anti-human IgG Fcγ-specific antibody conjugated with HRP (Jackson ImmunoResearch Laboratories, Inc., West Grove, USA). Binding was determined by measurement of HRP activity in a standard colorimetric assay. EC₅₀ values were estimated by non-linear regression using GraphPad Prism software (San Diego, USA).
(§2) High affinity binding was detected for poly-GA DPRs harboring 10 or 20 (GA)-repeats, reflected in an EC₅₀ in the subnanomolar or low nanomolar range (FIGS. 7A, 7C-7I).

PR2: H-(PR)2HHHHHH-NH2 = target: T2, PR2: H-(PR)2HHHHHH-NH2; test: as above
T2 peptide: H-PRPRHHHHHH-NH2
Protocol: as §1, §2

PR4: H-(PR)4HHHHHH-NH2 = target: T3, PR4: H-(PR)4HHHHHH-NH2; test: as above
T3 peptide: H-PRPRPRPRHHHHHH-NH2
Protocol: as §1, §2

PR5: H-(PR)5HHHHHH-NH2 = target: T4, PR5: H-(PR)5HHHHHH-NH2; test: as above
T4 peptide: H-PRPRPRPRPRHHHHHH-NH2
Protocol: as §1, §2

[1] = target: T5, BSA-coupled (PR)15 DPR protein peptide (bovine, conjugated via a bifunctional linker (SMCC) to bovine serum albumin); test: indirect ELISA, BSA-coupled peptide coated, antibody titrated [also D00013 FIG. 3F]
T5 construct: also called BSA-(PR)15
Protocol: as §1, with “In brief, dipeptide repeat proteins were synthesized and purified by Schafer-N(Copenhagen, Denmark): (GA)₁₅: H-CHHHHHH(GA)₁₅-OH; (GP)₁₅: H-C(GP)₁₅-OH; (GR)₁₅: H-C(GR)₁₅-OH; (PA)₁₅: H-C(PA)₁₅-OH; (PR)₁₅: H—C(PR)₁₅-OH. DPR protein peptides were then conjugated via a bifunctional linker (SMCC) to bovine serum albumin (BSA). 96-well microplates” for “96-well microplates”, “coated with BSA-coupled or -uncoupled dipeptide repeat” for “coated with dipeptide repeat”, “concentration of either 5 μg/ml or 20 μg/ml in” for “concentration of 50 μg/ml in”

PA3: H-(PA)3HHHHHH-NH2 = target: T6, PA3: H-(PA)3HHHHHH-NH2; test: indirect ELISA, His-tagged peptide coated at 50 ug/ml, antibody titrated [also D00028 FIG. 7P]
T6 peptide: H-PAPAPAHHHHHH-NH2
Protocol: as §1, §2

PA2: H-(PA)2HHHHHH-NH2 = target: T7, PA2: H-(PA)2HHHHHH-NH2; test: as above
T7 peptide: H-PAPAHHHHHH-NH2
Protocol: as §1, §2

PA4: H-(PA)4HHHHHH-NH2 = target: T8, PA4: H-(PA)4HHHHHH-NH2; test: as above
T8 peptide: H-PAPAPAPAHHHHHH-NH2
Protocol: as §1, §2

[2] = target: T9, BSA-coupled (GA)15 DPR protein peptide (bovine, conjugated via a bifunctional linker (SMCC) to bovine serum albumin); test: indirect ELISA, BSA-coupled peptide coated, antibody titrated [also D00012 FIG. 3B]
T9 construct: also called BSA-(GA)15
Protocol: as §1, with “In brief, dipeptide repeat proteins were synthesized and purified by Schafer-N(Copenhagen, Denmark): (GA)₁₅: H-CHHHHHH(GA)₁₅-OH; (GP)₁₅: H-C(GP)₁₅-OH; (GR)₁₅: H-C(GR)₁₅-OH; (PA)₁₅: H-C(PA)₁₅-OH; (PR)₁₅: H—C(PR)₁₅-OH. DPR protein peptides were then conjugated via a bifunctional linker (SMCC) to bovine serum albumin (BSA). 96-well microplates” for “96-well microplates”, “coated with BSA-coupled or -uncoupled dipeptide repeat” for “coated with dipeptide repeat”, “concentration of either 5 μg/ml or 20 μg/ml in” for “concentration of 50 μg/ml in”
Target sequence in this assay (peptide, as listed by the source limits assumed, chain 1 of 2): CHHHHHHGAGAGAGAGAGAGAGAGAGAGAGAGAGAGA
Target sequence in this assay (P02769 25-607 limits assumed, chain 2 of 2): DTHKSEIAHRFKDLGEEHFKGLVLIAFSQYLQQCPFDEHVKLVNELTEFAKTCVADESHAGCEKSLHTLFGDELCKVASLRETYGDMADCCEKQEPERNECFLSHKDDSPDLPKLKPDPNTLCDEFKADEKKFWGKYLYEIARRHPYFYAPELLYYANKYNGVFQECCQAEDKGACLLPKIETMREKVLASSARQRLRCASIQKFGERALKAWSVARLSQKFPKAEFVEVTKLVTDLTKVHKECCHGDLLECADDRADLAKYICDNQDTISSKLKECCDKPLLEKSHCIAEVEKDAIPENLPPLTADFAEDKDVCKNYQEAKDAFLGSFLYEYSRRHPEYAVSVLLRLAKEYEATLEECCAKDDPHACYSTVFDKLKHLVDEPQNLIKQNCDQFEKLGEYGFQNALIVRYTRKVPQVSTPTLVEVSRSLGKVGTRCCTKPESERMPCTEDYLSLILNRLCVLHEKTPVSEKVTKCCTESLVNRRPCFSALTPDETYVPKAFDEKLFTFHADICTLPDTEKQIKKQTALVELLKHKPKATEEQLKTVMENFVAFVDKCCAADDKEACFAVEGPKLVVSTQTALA

GR10: H-(GR)10HHHHHH-NH2 = target: T10, GR10: H-(GR)10HHHHHH-NH2 (C-terminal amide); test: indirect ELISA, His-tagged peptide coated at 50 ug/ml, antibody titrated
T10 peptide: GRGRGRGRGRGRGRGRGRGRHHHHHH
Protocol: as §1, §2

GR2: H-(GR)2HHHHHH-NH2 = target: T11, GR2: H-(GR)2HHHHHH-NH2; test: indirect ELISA, His-tagged peptide coated at 50 ug/ml, antibody titrated [also D00026 FIG. 7L]
T11 peptide: H-GRGRHHHHHH-NH2
Protocol: as §1, §2

[3] = target: T12, BSA-coupled (GP)15 DPR protein peptide (bovine, conjugated via a bifunctional linker (SMCC) to bovine serum albumin); test: indirect ELISA, BSA-coupled peptide coated, antibody titrated [also D00014 FIG. 3H]
T12 construct: also called BSA-(GP)15
Protocol: as §1, with “In brief, dipeptide repeat proteins were synthesized and purified by Schafer-N(Copenhagen, Denmark): (GA)₁₅: H-CHHHHHH(GA)₁₅-OH; (GP)₁₅: H-C(GP)₁₅-OH; (GR)₁₅: H-C(GR)₁₅-OH; (PA)₁₅: H-C(PA)₁₅-OH; (PR)₁₅: H—C(PR)₁₅-OH. DPR protein peptides were then conjugated via a bifunctional linker (SMCC) to bovine serum albumin (BSA). 96-well microplates” for “96-well microplates”, “coated with BSA-coupled or -uncoupled dipeptide repeat” for “coated with dipeptide repeat”, “concentration of either 5 μg/ml or 20 μg/ml in” for “concentration of 50 μg/ml in”

GP6: H-(GP)6HHHHHH-NH2 = target: T13, GP6: H-(GP)6HHHHHH-NH2; test: indirect ELISA, His-tagged peptide coated at 50 ug/ml, antibody titrated
T13 peptide: H-GPGPGPGPGPGPHHHHHH-NH2
Protocol: as §1, §2

GA3: H-(GA)3HHHHHH-NH2 = target: T14, GA3: H-(GA)3HHHHHH-NH2; test: indirect ELISA, His-tagged peptide coated at 50 ug/ml, antibody titrated [also D00026 FIG. 7K]
T14 peptide: H-GAGAGAHHHHHH-NH2
Protocol: as §1, §2

GA2: H-(GA)2HHHHHH-NH2 = target: T15, GA2: H-(GA)2HHHHHH-NH2; test: as above
T15 peptide: H-GAGAHHHHHH-NH2
Protocol: as §1, §2

GA5: H-(GA)5HHHHHH-NH2 = target: T16, GA5: H-(GA)5HHHHHH-NH2; test: as above
T16 peptide: H-GAGAGAGAGAHHHHHH-NH2
Protocol: as §1, §2

[4] = target: T9, BSA-coupled (GA)15 DPR protein peptide; test: indirect ELISA, BSA-coupled peptide coated, antibody titrated [also D00013 FIG. 3D]
Protocol: as §1, with “In brief, dipeptide repeat proteins were synthesized and purified by Schafer-N(Copenhagen, Denmark): (GA)₁₅: H-CHHHHHH(GA)₁₅-OH; (GP)₁₅: H-C(GP)₁₅-OH; (GR)₁₅: H-C(GR)₁₅-OH; (PA)₁₅: H-C(PA)₁₅-OH; (PR)₁₅: H—C(PR)₁₅-OH. DPR protein peptides were then conjugated via a bifunctional linker (SMCC) to bovine serum albumin (BSA). 96-well microplates” for “96-well microplates”, “coated with BSA-coupled or -uncoupled dipeptide repeat” for “coated with dipeptide repeat”, “concentration of either 5 μg/ml or 20 μg/ml in” for “concentration of 50 μg/ml in”
Target sequence in this assay (P02769 25-607 limits assumed): as the sequence (P02769 25-607 limits assumed, chain 2 of 2) above

T12 sequence (peptide, as listed by the source limits assumed, chain 1 of 2): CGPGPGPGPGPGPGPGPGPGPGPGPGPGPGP
T12 sequence (P02769 25-607 limits assumed, chain 2 of 2): as the sequence (P02769 25-607 limits assumed, chain 2 of 2) above
T5 sequence (peptide, as listed by the source limits assumed, chain 1 of 2): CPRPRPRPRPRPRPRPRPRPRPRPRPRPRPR
T5 sequence (P02769 25-607 limits assumed, chain 2 of 2): as the sequence (P02769 25-607 limits assumed, chain 2 of 2) above

B1: NI-308.24E11 (antibody, V domains shown)
VH: QVQLQESGPGLVKPSETLSLTCTVSTTSLRSYFWSWIRQPPGKGLEWIGYVYYSGSTIYNPSLKNRVTISIDTSKNQFSLNLRSVTAADTAMYFCARGVPAETDARDFPPYYFDHWGQGTLVTVSS
VL: CDIQLTQSPSSLSASVGNRITFTCQASQDIRYYLNWYQQKPGKAPKLLIYDVSNLDTGVPPRFSGSGSGTNFTFTISSLQPEDIAVYYCQQYEGLPVTFGGGTKVEIK
notes: Recombinant complete human IgG1, kappa
binding result (PR3: H-(PR)3HHHHHH-NH2): no binding (tested: about 4x10^5 pM (last point))
binding result (PR2: H-(PR)2HHHHHH-NH2): no binding (tested: about 4x10^5 pM (last point))
binding result (PR4: H-(PR)4HHHHHH-NH2): no binding (tested: about 4x10^5 pM (last point))
binding result (PR5: H-(PR)5HHHHHH-NH2): no binding (tested: about 4x10^5 pM (last point))
EC50 [1]: > 200 nM

B2: NI-308.4M1 (antibody, V domains shown)
VH: EVQLVETGGGVVQPGGSLRLSCEASGFTIGTYAMHWVRQFPGKGLDWVAVISFDGTTEYYTDAVKGRFTISRDNAKNTLYLQMNYLRGDDTAIYFCARDFTSSGETGSWTQVPDLWGQGTLVTVSS
VL: CEIVMTQSPATLSLSPGERATLSCRASQSVTKYLAWYQQKPGQAPRLLIYDVSYRAAGTPARFSGSGSGTDFTLTISSLEPEDFAVYYCHQRSSWPPVTFGGGTKVEIK
notes: as for B1
binding result (PA3: H-(PA)3HHHHHH-NH2): no binding (tested: about 4x10^5 pM (last point))
binding result (PA2: H-(PA)2HHHHHH-NH2): no binding (tested: about 4x10^5 pM (last point))
binding result (PA4: H-(PA)4HHHHHH-NH2): no binding (tested: about 4x10^5 pM (last point))

B3: NI-308.18F7 (antibody, V domains shown)
VH: QVQLQESGPGLVKPSETLSVTCTVSGGSINDYYWNWIRQPAGKGLEWIGRIYASGTINYNPSLQSRVTMSIDTSKNQFSLDLISVSAADTAVYYCARWGQVVGDYYYGMDVWGQGTTVTVSS
VL: EIVLTQSPLSLSVTPGEPASISCKSSQSLQHTNGYNYLDWYLLKPGQSPQLLIFLTSNRASGVPDRFSGSGSGTNFTLKISRVEAEDVGVYYCMEGIQLWTFGQGTKLEIK
notes: as for B1
EC50 [2]: 0.11 nM

B4: NI-308.6B11 (antibody, V domains shown)
VH: EVQLVQSGAEVKRPGASVKVSCKVSGYTLTELSMHWVRQAPGKGLEWMGGFDPEDGETVYAQKFQGRVTMTEDTSTDTAYMELSSLRSEDTALYHCATYGSSWHWNEGNEGSYYFDYWGQGTLVTVSS
VL: CDIQMTQSPSSLSASVGDRVTITCQASQDISIYLNWYQQKPGKAPKLLIYDASNLETGVPSRFSGSGSGTDFTFTISGLQPEDVARYYCQQYDDLPITFGQGTRLEIK
notes: as for B1
EC50 (GR10: H-(GR)10HHHHHH-NH2): 1.28 nM
binding result (GR2: H-(GR)2HHHHHH-NH2): no binding (tested: about 4x10^5 pM (last point))

B5: NI-308.46E9 (antibody, V domains shown)
VH: QVQLQESGPGLVKPSETLSLTCTVSGASISGSTYYWGWIRQPPGKGLEYIGRIYYSGSTYYNPSLKSRATISVDTSKNQLSLTLSSVTAADTAVYYCVRPFYAGSGNSPFDYWGQGTLVTVSS
VL: CEIVLTQSPATVSVSPGERATLSCRASQSVSTNLAWYQQKPGQPPRLLIYGASTRATGIPARFSGSGSGAEFTLTISSLQSEDFVVYYCQQYNNWPPAFGGGTKVEIK
notes: as for B1
EC50 [3]: 12.1 nM
EC50 (GP6: H-(GP)6HHHHHH-NH2): > 200 nM

B6: NI-308.5G2 (antibody, V domains shown)
VH: EVQLVQSGADLRNPGASVTVSCTASGYHFADNAINWLRQAPGQRLEWMGWINIYSGNTKYSQNFQGRVTFTRNTSASTAFMHLRSLRSEDTAVYFCARDPDSSGYYLPYFDYWGQGTLVTVSS
VL: DIQLTQSPDSLTLSLGERATINCKSSQSVFYNSNNKNYLAWYQQKPGQPPKLLMYWASTRESGVTDRFSGSGSGTDFTLTITNLQAEDVAVYYCQQFYSSPLTFGGGTKVEIK
notes: as for B1
binding result (GA3: H-(GA)3HHHHHH-NH2): no binding (tested: about 4x10^5 pM (last point))
binding result (GA2: H-(GA)2HHHHHH-NH2): no binding (tested: about 4x10^5 pM (last point))
binding result (GA5: H-(GA)5HHHHHH-NH2): no binding (tested: about 4x10^5 pM (last point))

B7: NI-308.28G1 (antibody, V domains shown)
VH: QVQLQESGPRLVKPSETLSLTCTVAGGSVNSYYWTWIQQSPGKGLEWLGRIYIAGRTNYNPSLTSRIALSVDTSRNQLSLKLTSVTAADTAIYYCARWGAESGDYYYGVDVWGPGTLVTVSS
VL: EIVMTQSPLSLPVTPGEPASISCKSSEGLLHSNGYTYLDWYLQKPGQAPQLLIFLASNRAAGVPDRFSGSGSGTDFTLKISRVEAEDVGVYYCMQAIQSPWTFGPGTKVEIK
notes: as for B1
EC50 [4]: 0.66 nM
